Data on 38 variants can be found in the RNAGym collection of RNA variant scans (doi:10.1073/pnas.2313332121).

To fix the notation:
B1: TPR 5TU (parent)
chain: GGAUCUUCUCGAUCUAACAAAAAAGACAAAUCUGCCACAAAGCUUGAGAGCAUCUUCGGAUGCAGAGGCGGCAGCCUUCGGUGGCGCGAUAGCGCCAACGUUCUCAACUAUGACACGCAAAACGCGUGCUCCGUUGAAUGGAGUUUAUCAUG

Variants at the floor of the assay were thinned out. A value given as a limit tells only on which side of the number the result lay.

Variants of B1 are the subject of the series. As to the kind of experiment: polymerase ribozyme fitness, log enrichment relative to wild type (log ratio); higher = more active; in vitro selection for triplet polymerase activity. Put shortly:
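Mutant libraries were PCR-built and transcribed for each subunit of a heterodimeric triplet polymerase ribozyme and selected for one round in triplicate at −7 °C, frozen, before gel excision of extended constructs and streptavidin-bead capture. Input and output libraries were Illumina-sequenced, keeping genotypes with ≥10 input reads and ≥1 read per output. Fitness is a logarithmic ratio of genotype to wild-type enrichment, in base 2, using inverse-variance-weighted replicate averages.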
For the variant GGAUCUUCUCGAUCUAACAAAAAAGACGAAUCUGCCACAAAGCUUGAGAGCAUCUACGGAUGCAGAGGCGGCAGCCUUCGGUGGCGCGAUAGCGCCAACGUUCUCAACUAUGACACGCAAAACGCGUGCUCCGUUCAAUGGAGUUUAUCAUG, the “polymerase ribozyme fitness (log ratio)” value was at most -4.2.
In the case of GGAUCUUCUCGCUCUAACAUAAAAGACAAAUCUGCCACAAAGCUUGAGAGCACCUUCGGAUGCAGAGGCGGCAGCCUUCGGUGGCGCGGUAGCGCCAACGUUCUCAACUAUGACACGCAAAACGCGUGCUCCGUUGAAUGGAGUUUAUCAUG, the “polymerase ribozyme fitness (log ratio)” value was -3.96.
The same measure for GGAUCUUCUCGGUCUAACAAAAAAGACAAAUCUGCCACAAAGCUUGAGAGCAUCUUUGGAAGCAGAGACCGCAGCCUUCGGUGGCGUGAUAGCGCAAACGUUCUCAACUAUGACACGCAAAACGCGUGCUCCAUUGAAUGGAGUUUAACAUG: at most -4.2; for GGAUCUUCUCGAUCUAACAAAAAAGACAAAUCUGCCACAAAGCUUGAGAGCAUUUUCGGAUGCAGAGCGGUCAGCCUUCGGUGGCGCGAUAGCGCCAACGUUCUCAACUAUGACACGCAAAACGCGUGCUCCGUUGAAUAGAGGUUAUCAUG: at most -4.2.
As to GGAUCUUCUCGAUCUAACAAAAAUGACAAAUCUGCCACAAAGCUUGAGAGCAUCUUCGGAUGCAGAGGCGGCAGCCUUCCGUGGCGCGAUAGCGCCAACGUUCUCAACUAUGACACGCAAAACGCGUGCUCCGUUGAAUGGAGUUUAUCAUG, the “polymerase ribozyme fitness (log ratio)” value is -4.14.
As for GGAUCUUCUCGAUCUAACAAAAAAGACAAAUCUGCCACAAAGCUUGAGAGCAUCUUCGGAUGCAGAGGCGGCAGCCUUCGGUGGCGCGAUAGCGCCAACGUUCUCAACUAUGACACGCAAAACGCGUGCUCCGUUGAAUGGAGCUUAUCCUG, the “polymerase ribozyme fitness (log ratio)” value was -4.19.
As for GGAUCUUCUCGAUCUAACAAAAAAGUCAAAUCUGCCACAAGGCUUGAGAGCAUCUUCGGAUUCAGAGGCGGCAGCCUUCGGUGGCGCGAUAGCGCCAACGUUCUCAACUAUGACACGCAAAACGCGUGCUCCGUUGAAUGGAGUUUAUCAUG, the figure is -1.6; as for GGAUCUUCUCGAUCUAACAAAAAAGACAAAUCUUCCACUAAGCUUGAGAGCAACUUCGGAUGCUGAGGCGGCAGCCUUCGGUGGCGCGAUAGCGCCAACGUUCUCAACUAUGACAUGCAAAACGCGUGCUCCGUUGAAUGGAGUUGAUCAUG, at most -4.2; as for GGAUCUUCUCGAUCUAACAAAAAAGACAAAUCUGCCACAACGCUUGAGAGCAUCUUCGGAUGCAGAGGCGGCAGCCCUCAGUGGCGCGAUAGCGCCAACGUCCUCAACUAUGACACGCAAAACGCGUGCUCCGUUGAAUGGAGGUUAUCAUG, at most -4.2.
With GGAUCUUCUCGAUCUAACAAAAAAGACAAAUCUGCCACAAAGCUUGAGAGCAUCUUCGGAUGCAGAGGCGGCAGUCUUCGGUGGUGCGAUAGCGCCAACGUUCUCAACUAUGACACGCAAAACGCGUGCUCCGUUGAAUGGAGUUUAUCAUG, the “polymerase ribozyme fitness (log ratio)” value was determined as 0.543.
As for GGAUCUUCUCGAUCUAACAAAAAAGACAAAUCUGCCACAAAGCUUGAGAGCAUCUUAGGAUGCAGAGGCGGCAGCCUUCGGUGGCGCGAUAGCGCCAACCUUCUCAACUAUGACACGCAAAACGCGUGCUCCGUUGAAUGGAGUUUAUCAUG, the “polymerase ribozyme fitness (log ratio)” value was at most -4.2.
Consider GGAUCUUCUCGGUCUAACAAAAAAGACAAAUCUGCCACAAAGCUUGAGAGCAUCUUCGGGUGCAGAGGCGGCAGCCUUCGGUGGCGCGAUAGUGCCAACGUUCUCAACUAUGACACGCAAAACGCGUGCUCCGUUGAAUGGAGUUUAUCAUG, for which the “polymerase ribozyme fitness (log ratio)” value is -0.294.
As for GGAUCUUCUCGAUCUAACAAAAAAGACAAAUCUGCCACAAAGCUUGAGAGCAUUUUCGGAUGCAGAGGCGGUAGCCUUCGGUGGCGCGAUAGCGCCAACGUUCUCAACUAUGACACGCAAAACGCGUGCUCCGUUGAAUGGAGUUUAUCAUG, the figure is -0.468; as for GGAUCUUCUCGAUCGAACAAAAAAGACGUAUCUGCGACAGAGCUUGAGAGCAUCUUCGGAUGCAGAGGCGGCAGCCUUCGGUGGCGCGAUAGCUCCAACGUCCUCAACUAUGACACGCAAAGCGCGUGCUCCGUUGAAGGGAGUUUAUCAUG, at most -4.2.
With GGAUCUUCUCGAUCUAACAAAAAAGACAAAUCUGCCACAAAGCUUGAGAGCAUCUUCGGAUGCAGAGGCGGCGGCUUUCGGUGGCGCGAUAGAGCCAAAGUUCUCAACUAUGACACGCAAAACGCGUGCUCCGUUGAAUGGAGUAUAUCAUG, the “polymerase ribozyme fitness (log ratio)” value is at most -4.2.
On to GGAUCUUCUCGAUCUAACAAAAAAGACAAAUCUGCCACAAAGCUUGACAGCAUCUUCGGAUGCAGAGGCGGCAGCCUUCGGUGGCUCGAUAGCGAGAACGUUCUCAACUAUGACACCCAAAACGCGUGCUCCGUUAAAUGGAGUUUAUCAUG, for which the “polymerase ribozyme fitness (log ratio)” value was at most -4.2.
As for GGAUCUUCUCGAUCUAACAAAAAAGACAAAUCUGCCACAAAGCUGGAGAGCAUCUUCGGAUGCAGCGGCGGCAGCAUUCGGUGGCUCGAUAGCGCUAACGUUCUCAACUAUGACACGCAAAACGCGUGCUCCGUUGAAUGGAGUUUAUCAUG, the figure is at most -4.2.
As for GGAUCUUAUCCAUCUAACAAAAAAGACAUAUCUGCCACAAAGCUUGAGAGCAUCUUCGGAUGCAGAGGCGGCAGCCUUCGGUGGCGCGAUAGCGGCAACGUUCUCAACUAUGACACGCAAAACGCGUGCUCCGUUGAAUGGAGUUUAUCAUG, the figure is at most -4.2.
As to GGAUCUUCUCGAUCUAACAAAAAAGACAAAUCUGCCACAAAGCUUGAGAGCAUCUUCGGAUGCAGAGGCGGCUGCCUUCGUUGGCGCGAUAGCGCCAACGUUCUCGACUAUGACGCGCUAAACGCGUGCUCCGUUGAAUGGAGUUUCUCAUG, the “polymerase ribozyme fitness (log ratio)” value is at most -4.2.
As for GGAUCUUCUCGGCCUAACAAAAAAGACAAAUCUGCCACAAAGCUUGAGAGCAUCUUCGGAUGCAGAGGCGGCAGCCUUCGGUGGCGCGAUAGCGCAAACGUUCUCAACUAUGACACGCAAAACGCGUGCUCCGUUGAAUGGAGUUUAUCAUG, the figure is -0.909.
As for GGAUCUUCUCGAUCUAACAAAAAAGACAAAUCUGCCACAAAGCUUGAGAGCAUCUUCGGAUACAGAGGUGGCAGCCUUCGGUGGCGCGAUAGCGCCAACGUUCUCAACUAUGACACGCAAAACGCGUGCUCCGUUGAAUGGAGUUUAUCAUG, the “polymerase ribozyme fitness (log ratio)” value is -2.82.
As for GGAUCUUCUCGAUCUAACAAAAAAGACAAAUCUGCCACAAAGCUUGAGAGCCACUUCGGAUGCAACGGCGGCAGCCUUUGGUGGCGCGAUAGCGCCAACGUUCUCAACUAUGACACGCAAAACGCGUGCUCCGUUGAAUGGAGUUUAUUAUG, the “polymerase ribozyme fitness (log ratio)” value is at most -4.2.
The same measure for GGAUCUUCUCGAUCUAACAAAAAAGACAAAUCUGCCACAAAGCUUGAGAGCAUCUUCGGAUGCAGAGGCGGCUGCCUUCGGUGGCGCGAUAGCACCAACGUUCUCAACUAUGACACGCAAAACGCGUGCUCCGUUGAAUGGAGUUUAUCAUC: at most -4.2; for GGAUCUUCUCGAUCUAACAUAAAAGACAAAUCUGCCACAAAGCUUGAGAGCAUCUUAGGAUGCAGAGGCGGCAGCCUUCGGUGUCGCGAUAGCGCCAACGUUCUCAACUAUGACACGCAAAACGCGUGCUCCGUUGAAUGGAGUUUAUCAUG: -3.17; for GGAUCUUCUCGAUCUAACAAAAAAAGCAAAUCUGCCACAGAGCUUGCGAGCAUCUUCGGAUGCAGAGGCGGCAGCCUUCGGUGGAGCGAUAGCGCCAACGUUCUCAACUAUGACAGGCCAAACGCGUGCUCCGUUGAAUGGAGUUUAUCAUG: at most -4.2.
In the case of GGAUCUUCUCGAUUUAACAUAAAUGACAAAUCUGCCACAAAACUUGAGCGCAUCUUAGGCUGCAGAGGCGGCAGCCUUCGGUGGCGCGAUAGCGCCAACGUUCGCAACUAUGAACCGCAAAACGCGUGCUCCGUUGAAUGGAGUUUAUCAUG, the “polymerase ribozyme fitness (log ratio)” value is at most -4.2.
The same measure for GGAUCUUCUCGAUCUAACAAAAAAGACAAAUCUGCCACAAUGCUUGAGAGCAUCUUCGGAUGCAGAGGCGGCAGCCUUCGGUGGCGCGUUAGUGCCAACGUUCUCAACUAUGACACUCAAAACGCGUGCUCCGUUGAAUGGAGUUUUUCAUG: -2.89; for GGAUCUUCUCGAUCUAACAAAAAAGACAAAUCUGCCACAAAGCUUGAGAGCAUCUUCGGCUGCAGAGGCGGCAGCCUUCGGUGGCGCGAUAGCGCCUACGUUCUCAACUAUGACACGCAAAACGCGUGCUCCGUUGAAUGGAGUUUAUCAUG: -1.64; for GGAUCUUCUCGAUCUAACAAAAAAGACAACUCUGCCACAAAGCUUGAGAGCAUCUUUGCAUGCAGAGGCGGCAGCCUUCGGAGGCGCGAUAGCGCCAACGUUCUCAACUAUGACACACAAAACGCGUGCUCCGUUGACUGGAGUUUAUCAUG: at most -4.2.
The same measure for GGAUCUGCUCGAUCUAACAAAAAAGACAAAUCUGCCACAAAGCUUGUGAGCAUCAUAGGAUGUAGAGGCGGCAGCCUUCGGUGGCGCGAUAGCGUCAACGUUCUCAACUAUGACACGCAAAACGCGUGCUCCGUUGAAUGGAGUUUAUCAUG: -3.6; for GGAUCUUCUCGAUCUAACAAAAAAGACAAAUCUGCCACAAAGCUUCAGAGCAUCUUCGCAUGCAGAGGCGGCAGCCUUCGGUGGCGCAAUAGCGCCAACGUUCUCAACUAUGACACGCAAAACGCGUGCUCCGUUGAAUGGAGUUUAUCAUG: at most -4.2.
As for GGAUCUUCUCGAUCUAACAAAAAAGACAAAUCUGCCACAAAGCUUGAGAGCAUCUUCGGAUGCAGAGGCGGCAGCAUUCGGUGGCGCGAUAGCGUCAACGUUCUCAACUAUGACACGCAAAACGCGUGCUCCGUUGAAUGGGGUUUAUCAUG, the “polymerase ribozyme fitness (log ratio)” value was -1.94.
The same measure for GGAUCUUCUCGAUCUAACAAAAAAGACAAAUCUGCCACAGAGCUUGAGAGCAUCUUCGGAUGCAGAGGCGGCAGCCUUCGGUGGCGCGAGAGCGACAACGUUCUCAACUAUCACACGCAAAACGCGCGCUCCGUUGAAUGGAGUUUAUCAUG: at most -4.2; for GGAUAUUCUCGAUCUAUCAAAAAAGACAAAUCUGCCACAAAACUUGAGAGCAUCUUCGGAUGCAGAGGCGGCAGCCUUCGGUCGCGCGAUAGCGCCAACGUACUCAACUAUGACACGCUAAACGCUUGCUCCGUUGAAUGUAGUUUAUCAUG: at most -4.2; for GGAUCUUCUCGAUCUAACAAAAAAGACAAAUCGGCCACAAAGCUUGAGAGCAUCUUCUGAUGCAGAGGCGGCAGCCUUCGGUGGCGCGAUCGCGCCAACGUUCUCAACUAUGACACGCAAAACGCGUGCUCCGUUGAAUGGAUUUUAUCAUG: -3.87.
Turning to GGAUCUUCUCGAUCUAACAAAAAAGACAAAUCUGCCACAAAGCUUGAGAGCAUUUUCGGAUGCAGAGGCGGCAGCCUUCGGUGGCGCGAUAGCGCCAACGUUCUCAACUCUGAUACGCAAUACGCGUGCUCCGUUGAAUGGAGUUUAUCAUG, the “polymerase ribozyme fitness (log ratio)” value is -4.15.
As for GGAUCUUCUCGAUCUAACUAAAAAGACAAAUCUGCCACAAAGCUUGAGAGCAUCUUCGGAUGCAGAGGCGGCAGCCUUCGGUGGCGUGAUAGCGCCAACGUUCUCAACUAUGACACGCAAAACGCGUGCUCCGUUGAAUGUAGUUCAUCAUG, the figure is 0.666; as for GGAUCUUCUCGAUCUAACAAAAAAGACAAAUCUGCCACAAAGCGGGAGAGCAUCUUCGGAUGCAGAGGCGGGAGCCUUCGGUGGCGCGAUAGCGCCAACGUUCUCAACUAUGACACGCAAAACGCGUGCUCCGUUGAAUGGAGUUUAUCAUG, at most -4.2.
